Numbering of substitutions follows the chain as printed. One block for each molecule: values may come before it.
Columns and labels:
human ferroportin 1 [1] = target: T1, human ferroportin 1 (human, UniProt Q9NP59 1-571); test: cell-based or functional assay
T1 sequence: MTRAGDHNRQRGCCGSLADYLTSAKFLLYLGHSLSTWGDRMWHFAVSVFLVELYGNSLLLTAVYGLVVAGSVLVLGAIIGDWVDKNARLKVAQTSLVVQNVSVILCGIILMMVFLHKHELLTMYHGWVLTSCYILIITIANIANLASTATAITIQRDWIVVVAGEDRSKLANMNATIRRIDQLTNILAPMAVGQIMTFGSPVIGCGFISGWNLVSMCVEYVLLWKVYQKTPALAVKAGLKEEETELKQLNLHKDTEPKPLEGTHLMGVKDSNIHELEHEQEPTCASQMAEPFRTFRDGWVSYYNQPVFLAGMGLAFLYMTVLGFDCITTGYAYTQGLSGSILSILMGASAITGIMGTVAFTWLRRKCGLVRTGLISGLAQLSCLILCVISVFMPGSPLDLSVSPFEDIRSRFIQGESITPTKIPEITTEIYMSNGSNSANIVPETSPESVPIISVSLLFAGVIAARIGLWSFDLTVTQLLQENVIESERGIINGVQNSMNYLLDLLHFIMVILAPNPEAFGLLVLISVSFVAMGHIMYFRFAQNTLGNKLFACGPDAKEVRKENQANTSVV

[2] = target: T2, human FPN1 C-terminally fused with GFP (human, UniProt Q9NP59 1-571, GFP reporter fused to the C-terminus ("FPN1 is C-terminally fused with GFP"). It is left out because the patent gives no letters for it.); test: cell-based or functional assay
T2 sequence: T1 sequence

[3] = target: T2, human FPN1 C-terminally fused with GFP; test: SPR, Biacore T100, 25 C, 1:1 model; FPN1-GFP captured from cell lysate on rabbit anti-GFP antibody, Mab injected
Description: (§1) The affinities of FPN1 binding Fabs and Mabs may be determined on Biacore T100 and using 1:1 binding model in the Biacore T100 evaluation software (BIAcore® AB, Upsala, Sweden). […] FPN1 is C-terminally fused with GFP. Expression of FPN1-GFP is induced by 1-10 ng/mL doxycycline for 1-24 hours. Induced cells are harvested by scraping off from flasks and then washed with 1×PBS. Cell pellets can be stored at −80° C. before use. About five million induced cells are resuspended in 10 mM phosphate buffer with 0.2% Tween-20 and protease inhibitors, e.g., Complete™ Protease Inhibitor Cocktail Tablet (Roche Diagnostics Corp., Indianapolis, Ind.). Three cycles of freeze/thaw/sonication are used to lyse the cells. The lysate is diluted two-fold with Biacore running buffer and centrifuged to remove debris.
(§2) On Biacore T100, rabbit anti-GFP antibody or goat anti-GFP antibody is immobilized onto flow cell 1 to 4 of a CMS chip at 5000-15000 Rus. FPN1-GFP is captured onto flow cell 2, 3, or 4 from the lysate of induced cells. Flow cell 1 is used as reference. Then all flow cells are injected with different concentrations of antibodies to evaluate the binding and kinetics.

[4] = target: T2, human FPN1 C-terminally fused with GFP; test: cell-based or functional assay; remark: listed apart in the source
[5] = target: T2, human FPN1 C-terminally fused with GFP; test: SPR, Biacore T100, 37 C, 1:1 model; FPN1-GFP captured from cell lysate on rabbit anti-GFP antibody, Fab injected
Description: as §1, §2

human ferroportin 1 [6] = target: T1, human ferroportin 1; test: inhibition of binding of 30 nM biotinylated hepcidin to FPN/293 cells, ELISA of lysate; antibody at 31.25 nM; mean
Description: (§3) Next, 65 μL of lysing buffer (0.5% Triton X-100, 10 mM EDTA) are added to all the wells and the plates are shaken for 10 minutes. Next, 50 μL of the solution in each well is transferred to individual wells of a streptavidin coated Greiner microtiter plate (60 μL of 2 μg/mL streptavidin (Sigma, St. Louis, Mo.; catalog no. S4762) in PBS, incubated at 4° C. overnight, washed 2 times (0.1% Tween 20, TBS), blocked with casein/PBS), and then incubated for one hour at room temperature. […] After incubating one hour at room temperature, the plate is washed 4× and 50 μL of OPD substrate (Sigma; catalog no. P6912) is added. The reaction is stopped with 100 μL 1 N HCl after 4 minutes. Absorbance at 490 nm (A₄₉₀) is read using an appropriate ELISA plate reader.

human ferroportin 1 [7] = target: T1, human ferroportin 1; test: inhibition of binding of 30 nM biotinylated hepcidin to FPN/293 cells, ELISA of lysate; antibody at 125 nM; mean
Description: as §3

human ferroportin 1 [8] = target: T1, human ferroportin 1; test: inhibition of binding of 30 nM biotinylated hepcidin to FPN/293 cells, ELISA of lysate; antibody at 2000 nM; mean
Description: as §3

human ferroportin 1 [9] = target: T1, human ferroportin 1; test: inhibition of binding of 30 nM biotinylated hepcidin to FPN/293 cells, ELISA of lysate; antibody at 7.8 nM; mean
Description: as §3

human ferroportin 1 [10] = target: T1, human ferroportin 1; test: inhibition of binding of 30 nM biotinylated hepcidin to FPN/293 cells, ELISA of lysate; antibody at 500 nM; mean
Description: as §3

[11] = target: T2, human FPN1 C-terminally fused with GFP; test: SPR, Biacore T100, 37 C, 1:1 model; FPN1-GFP captured from cell lysate on goat anti-GFP antibody, Fab injected; n = 3
Description: as §1, §2

[12] = target: T2, human FPN1 C-terminally fused with GFP; test: SPR, Biacore T100, 37 C, 1:1 model; FPN1-GFP captured from cell lysate on goat anti-GFP antibody, Fab injected; n = 4
Description: as §1, §2

Molecule: Control human IgG4 (antibody)
Percentage inhibition of mature hepcidin induced increase in cellular ferritin, Caco-2 cells, antibody at 2.22E-7 M (human ferroportin 1 [1]): 24.2%
Percentage inhibition of mature hepcidin induced increase in cellular ferritin, Caco-2 cells, antibody at 2.47E-8 M (human ferroportin 1 [1]): 22.1%
Percentage inhibition of mature hepcidin induced increase in cellular ferritin, Caco-2 cells, antibody at 2.7E-9 M (human ferroportin 1 [1]): 22.4%
Percentage inhibition of mature hepcidin induced increase in cellular ferritin, Caco-2 cells, antibody at 3.0E-10 M (human ferroportin 1 [1]): 15.5%
Percentage inhibition of mature hepcidin induced increase in cellular ferritin, Caco-2 cells, antibody at 6.67E-7 M (human ferroportin 1 [1]): 18.7%
Percentage inhibition of mature hepcidin induced increase in cellular ferritin, Caco-2 cells, antibody at 7.4E-8 M (human ferroportin 1 [1]): 21.1%
Percentage inhibition of mature hepcidin induced increase in cellular ferritin, Caco-2 cells, antibody at 8.0E-9 M (human ferroportin 1 [1]): 16.1%
Percentage inhibition of mature hepcidin induced increase in cellular ferritin, Caco-2 cells, antibody at 9.0E-10 M (human ferroportin 1 [1]): 17.5%

B2: Fab 34A9 (Fab, V domains shown)
VH: QVQLKQSGAELVRPGTSVKVSCKASGYAFTNFLIEWLKQRPGQGLEWIGTINPETGGTKYNEKFRGKATLTADKSSSTAYMQLNSLTSDDSAVYFCVREFFDYWGQGTSLTVSS
VL: ETTVTQSPSYLAASPGETITINCRASKSISKYLAWFQEKPGKTNKLLIYAGSTLHSGIPSRFSGSGSGTDFTLTISSLEPEDFAMYYCQQHNEYPYTFGGGTKLELK
notes: Mouse Fab; also called mouse Fab 34A9
Kd [5]: 41.5 nM
koff [5]: 0.00262 s⁻¹
kon [5]: 63200 M⁻¹ s⁻¹

B4: Fab 3D8 (Fab, V domains shown)
VH: QVQLVQSGAEVKKPGSSVKVSCKASGYAFTSFLIEWVRQAPGQGLEWMGTSNPRTGGTKYKEKFRGRVTITADKSTSTAYMELSSLRSEDTAVYYCAREFFDYWGQGTTVTVSS
VL: DIQMTQSPSSLSASVGDRVTITCRASKSISKYTAWYQQKPGKAPKLLIYAGSKLHSGVPSRFSGSGSGTDFTLTISSLQPEDFATYYCQQHNEYPYTFGGGTKVEIK
notes: Humanized form of mouse Fab 1G9 (VH1-69 and O2 frameworks); also called human 3D8
Kd [5]: 10.4 nM
koff [5]: 0.002 s⁻¹
kon [5]: 192000 M⁻¹ s⁻¹
Kd [11]: 6.29 nM
koff [11]: 0.00206 s⁻¹
kon [11]: 328000 M⁻¹ s⁻¹

B6: Fab 4A10-3 (Fab, V domains shown)
VH: B4 VH with T58R
VL: B4 VL with S56W
notes: also called human 4A10-3
Kd [12]: 1.76 nM
koff [12]: 0.00148 s⁻¹
kon [12]: 844000 M⁻¹ s⁻¹

Other lines, results leading:

Absolute IC50 of inhibition of hepcidin-25-induced internalization and degradation of FPN1-GFP [2]: 18.8 nM
Relative IC50 of inhibition of hepcidin-25-induced internalization and degradation of FPN1-GFP [2]: 9.2 nM
Top % Inhibition of hepcidin-25-induced internalization and degradation of FPN1-GFP [2]: 69%
Kd [3]: 0.728 nM
koff [3]: 9.81e-05 s⁻¹
kon [3]: 135000 M⁻¹ s⁻¹
Percent (%) Inhibition of Mature Human Hepcidin-induced Internalization and Degradation, Mab at 7.4 nM [4]: 24.3%
Percent (%) Inhibition of Mature Human Hepcidin-induced Internalization and Degradation, Mab at 22 nM [4]: 49.9%
Percent (%) Inhibition of Mature Human Hepcidin-induced Internalization and Degradation, Mab at 67 nM [4]: 61.8%
Percent (%) Inhibition of Mature Human Hepcidin-induced Internalization and Degradation, Mab at 200 nM [4]: 62.4%
Percent (%) Inhibition of Mature Human Hepcidin-induced Internalization and Degradation, Mab at 600 nM [4]: 67.9%
B1: Mab 1G9 (antibody, mouse IgG1, kappa, V domains shown)
VH: B2 VH with N31S, E54R
VL: ETTVTQSPSYLAASPGETITINCRASKSISKYLAWFQEKPGKTNKLLIYAGSKLHSGIPSRFSGSGSGTDFTLTISSLEPEDFAMYYCFQHNEYPYTFGGGTKLELKR
notes: also called mouse 1G9; murine Mab 1G9

% Inhibition (human ferroportin 1 [6]): 27.5%
% Inhibition (human ferroportin 1 [7]): 76.5%
% Inhibition (human ferroportin 1 [8]): 85.1%
Absolute IC50 of inhibition of hepcidin-25-induced internalization and degradation of FPN1-GFP [2]: 6.2 nM
Relative IC50 of inhibition of hepcidin-25-induced internalization and degradation of FPN1-GFP [2]: 4.8 nM
Top % Inhibition of hepcidin-25-induced internalization and degradation of FPN1-GFP [2]: 81.6%
% Inhibition (human ferroportin 1 [9]): -0.1%
EC50 of inhibition of mature hepcidin induced increase in cellular ferritin, Caco-2 cells (human ferroportin 1 [1]): 193 nM
Percentage inhibition of mature hepcidin induced increase in cellular ferritin, Caco-2 cells, Mab at 2.22E-7 M (human ferroportin 1 [1]): 53.8%
Percentage inhibition of mature hepcidin induced increase in cellular ferritin, Caco-2 cells, Mab at 2.47E-8 M (human ferroportin 1 [1]): 30.1%
Percentage inhibition of mature hepcidin induced increase in cellular ferritin, Caco-2 cells, Mab at 2.7E-9 M (human ferroportin 1 [1]): 39.6%
Percentage inhibition of mature hepcidin induced increase in cellular ferritin, Caco-2 cells, Mab at 3.0E-10 M (human ferroportin 1 [1]): 24.1%
Percentage inhibition of mature hepcidin induced increase in cellular ferritin, Caco-2 cells, Mab at 6.67E-7 M (human ferroportin 1 [1]): 61.7%
Percentage inhibition of mature hepcidin induced increase in cellular ferritin, Caco-2 cells, Mab at 7.4E-8 M (human ferroportin 1 [1]): 40.6%
Percentage inhibition of mature hepcidin induced increase in cellular ferritin, Caco-2 cells, Mab at 8.0E-9 M (human ferroportin 1 [1]): 39.5%
Percentage inhibition of mature hepcidin induced increase in cellular ferritin, Caco-2 cells, Mab at 9.0E-10 M (human ferroportin 1 [1]): 24.4%
% Inhibition (human ferroportin 1 [10]): 99.8%
B3: Mab L2.2-4 (antibody, human IgG4 S228P, kappa, F234A L235A, V domains shown)
VH: B4 VH with T58R
VL: DIQMTQSPSSLSASVGDRVTITCRASKSISKYTAWYQQKPGKAPKLLIYAGSKLRSGVPSRFSGSGSGTDFTLTISSLQPEDFATYYCQQHNEYPYTFGGGTKVEIKR

Kd [11]: 2.4 nM
koff [11]: 0.00637 s⁻¹
kon [11]: 2.31e+06 M⁻¹ s⁻¹
B5: Fab Combi11 (Fab, V domains shown)
VH: B4 VH with G57R, E62S
VL: B4 VL with L54R, S56W
notes: also called human Combi11

Kd [11]: 1.96 nM
koff [11]: 0.00079 s⁻¹
kon [11]: 431000 M⁻¹ s⁻¹
B7: Fab L2.2-4 (Fab, V domains shown)
VH: B4 VH with T58R
VL: B4 VL with H55R
notes: also called human L2.2-4
